Changes are numbered by the printed parent chain. Numbers in names are those of the source.
B1: GDAP1Δ303–358 R120Q (domain or fragment, human, UniProt Q8TB36-1 1-302, looked up)
chain: MAERQEEQRGSPPLRAEGKADAEVKLILYHWTHSFSSQKVRLVIAEKALKCEEHDVSLPLSEHNEPWFMRLNSTGEVPVLIHGENIICEATQIIDYLEQTFLDERTPRLMPDKESMYYPQVQHYRELLDSLPMDAYTHGCILHPELTVDSMIPAYATTRIRSQIGNTESELKKLAEENPDLQEAYIAKQKRLKSKLLDHDNVKYLKKILDELEKVLDQVETELQRRNEETPEEGQQPWLCGESFTLADVSLAVTLHRLKFLGFARRNWGNGKRPNLETYYERVLKRKTFNKVLGHVNNILIS
notes: human GDAP1 lacking residues 303-358 (GDAP1Δ303–358) with the CMT-linked mutation R120Q; CMT disease variant; source: E. coli BL21(DE3), autoinduction, purified (Ni-NTA, TEV cleavage, reverse Ni-NTA, SEC); not shown: His6, N-terminal, cleaved
B2: GDAP1Δ303–358 H256R (domain or fragment, human, UniProt Q8TB36-1 1-302, looked up)
chain: B1 chain with Q120R, H256R
notes: human GDAP1 lacking residues 303-358 (GDAP1Δ303–358) with the CMT-linked mutation H256R; CMT disease variant; source: E. coli BL21(DE3), autoinduction, purified (Ni-NTA, TEV cleavage, reverse Ni-NTA, SEC); not shown: His6, N-terminal, cleaved
B3: GDAP1Δ303–358 R161H (domain or fragment, human, UniProt Q8TB36-1 1-302, looked up)
chain: B1 chain with Q120R, R161H
notes: human GDAP1 lacking residues 303-358 (GDAP1Δ303–358) with the CMT-linked mutation R161H; CMT disease variant; source: E. coli BL21(DE3), autoinduction, purified (Ni-NTA, TEV cleavage, reverse Ni-NTA, SEC); not shown: His6, N-terminal, cleaved
B4: GDAP1Δ303–358 R282H (domain or fragment, human, UniProt Q8TB36-1 1-302, looked up)
chain: B1 chain with Q120R, R282H
notes: human GDAP1 lacking residues 303-358 (GDAP1Δ303–358) with the CMT-linked mutation R282H; CMT disease variant; source: E. coli BL21(DE3), autoinduction, purified (Ni-NTA, TEV cleavage, reverse Ni-NTA, SEC); not shown: His6, N-terminal, cleaved
B5: GDAP1Δ303–358 A247V (domain or fragment, human, UniProt Q8TB36-1 1-302, looked up)
chain: B1 chain with Q120R, A247V
notes: human GDAP1 lacking residues 303-358 (GDAP1Δ303–358) with the CMT-linked mutation A247V; CMT disease variant; source: E. coli BL21(DE3), autoinduction, purified (Ni-NTA, TEV cleavage, reverse Ni-NTA, SEC); not shown: His6, N-terminal, cleaved
B6: GDAP1Δ319–358 R310Q (domain or fragment, human, UniProt Q8TB36-1 1-318, looked up)
chain: MAERQEEQRGSPPLRAEGKADAEVKLILYHWTHSFSSQKVRLVIAEKALKCEEHDVSLPLSEHNEPWFMRLNSTGEVPVLIHGENIICEATQIIDYLEQTFLDERTPRLMPDKESMYYPRVQHYRELLDSLPMDAYTHGCILHPELTVDSMIPAYATTRIRSQIGNTESELKKLAEENPDLQEAYIAKQKRLKSKLLDHDNVKYLKKILDELEKVLDQVETELQRRNEETPEEGQQPWLCGESFTLADVSLAVTLHRLKFLGFARRNWGNGKRPNLETYYERVLKRKTFNKVLGHVNNILISAVLPTAFQVAKKRAPK
notes: human GDAP1 lacking residues 319-358 (GDAP1Δ319–358) with the CMT-linked mutation R310Q; CMT disease variant; eluted as dimer (main peak) and monomer; source: E. coli BL21(DE3), autoinduction, purified (Ni-NTA, TEV cleavage, reverse Ni-NTA, SEC); not shown: His6, N-terminal, cleaved
B7: GDAP1Δ319–358 R310W (domain or fragment, human, UniProt Q8TB36-1 1-318, looked up)
chain: B6 chain with Q310W
notes: human GDAP1 lacking residues 319-358 (GDAP1Δ319–358) with the CMT-linked mutation R310W; CMT disease variant; eluted as monomer (highest peak) and dimer; source: E. coli BL21(DE3), autoinduction, purified (Ni-NTA, TEV cleavage, reverse Ni-NTA, SEC); not shown: His6, N-terminal, cleaved

Assays:
[1] = target: wild-type GDAP1 (GDAP1Δ303–358) (human) (UniProt Q8TB36); experiment: batch-mode SAXS; concentration range 1–4 mg/ml, P12 beamline EMBL/DESY
[2] = target: the molecule itself; experiment: SEC-SAXS; variants in GDAP1Δ303–358; 100 μl at 1.7–36 mg/ml (maximum concentration for each variant) injected onto a BioSEC3-300 column, 25 mM HEPES pH 7.5, 300 mM NaCl, +15°C; top of the peak analysed
[3] = target: the molecule itself; experiment: SEC-SAXS; Arg310 mutants in GDAP1Δ319–358, at lower concentration than all the other mutants; BioSEC3-300 column, 25 mM HEPES pH 7.5, 300 mM NaCl, +15°C; two peaks (dimer and monomer)

Row | Molecule | stoichiometry N [2] | also measured
1 | wild-type GDAP1 (GDAP1Δ303–358) (from UniProt Q8TB36-1 1-302) (domain or fragment) | – | stoichiometry N [1]: 2
2 | B1 | 2 | –
3 | B2 | 2 | –
4 | B3 | 2 | –
5 | B4 | 2 | –
6 | B5 | 2 | –
7 | B6 | – | stoichiometry N [3]: 2
8 | B7 | – | stoichiometry N [3]: 2

Reference: paper PMC10104300, “Conserved intramolecular networks in GDAP1 are closely connected to CMT-linked mutations and protein stability” (PLOS ONE, 2023)
